Data taken from the Immune Epitope Database (IEDB).

Legend:
HLA-A*02:01 = assay: IEDB peptide-MHC binding, purified MHC/direct/fluorescence; filed as Kd, often an IC50 or EC50 that approximates it; ≥ and ≤ were set here for values at or beyond the usual limits of such assays
HLA-A*02:06 = assay: as above; settings: source organism: Vibrio vulnificus YJ016
HLA-A*02:12 = assay: as above
HLA-A*02:19 = assay: as above
HLA-A*03:01 = assay: as above
HLA-A*24:03 = assay: as above
HLA-A*26:01 = assay: as above
HLA-A*29:02 = assay: as above
HLA-B*15:01 = assay: as above
HLA-B*15:17 = assay: as above
HLA-B*18:01 = assay: as above
HLA-B*27:03 = assay: as above
HLA-B*39:01 = assay: as above
HLA-B*46:01 = assay: as above
HLA-B*51:01 = assay: as above
HLA-B*57:01 = assay: as above
HLA-A*01:01 = assay: IEDB peptide-MHC binding, purified MHC/competitive/fluorescence; filed as Kd, often an IC50 or EC50 that approximates it; ≥ and ≤ were set here for values at or beyond the usual limits of such assays
HLA-A*11:01 = assay: as above
HLA-A*23:01 [1] = assay: as above; settings: source organism: Vibrio vulnificus YJ016
HLA-A*30:01 = assay: as above; settings: source organism: Vibrio vulnificus YJ016
HLA-A*30:02 = assay: as above
HLA-A*66:01 = assay: as above
HLA-B*07:02 = assay: as above; settings: source organism: Vibrio vulnificus YJ016
HLA-B*08:01 = assay: as above
HLA-B*14:02 = assay: as above
HLA-B*27:05 = assay: as above
HLA-B*40:01 = assay: as above
HLA-B*44:02 = assay: as above
HLA-B*53:01 = assay: as above
HLA-B*58:01 = assay: as above
HLA-A*02:03 = assay: IEDB peptide-MHC binding, purified MHC/direct/fluorescence; filed as Kd, often an IC50 or EC50 that approximates it; ≥ and ≤ were set here for values at or beyond the usual limits of such assays; settings: source organism: Brucella melitensis bv. 1 str. 16M
HLA-A*02:11 = assay: as above; settings: source organism: Brucella melitensis bv. 1 str. 16M
HLA-A*02:16 = assay: as above; settings: source organism: Brucella melitensis bv. 1 str. 16M
HLA-A*23:01 [2] = assay: as above; settings: source organism: Brucella melitensis bv. 1 str. 16M
HLA-A*68:02 = assay: as above; settings: source organism: Brucella melitensis bv. 1 str. 16M
[3] = source organism: Vibrio vulnificus YJ016
[4] = source organism: Brucella melitensis bv. 1 str. 16M

SVFELSNFA showed a Kd (HLA-A*02:01; [3]) of 0.008 µM, a Kd (HLA-A*02:06) of 0.002 µM and a Kd (HLA-A*02:12; [3]) of 0.679 µM. It also gave a Kd (HLA-A*02:19; [3]) of no less than 20 µM, a Kd (HLA-A*03:01; [3]) of no less than 20 µM and a Kd (HLA-A*24:03; [3]) of no less than 20 µM. It also gave a Kd (HLA-A*26:01; [3]) of no less than 20 µM, a Kd (HLA-A*29:02; [3]) of no less than 20 µM and a Kd (HLA-B*15:01; [3]) of no less than 20 µM. It also gave a Kd (HLA-B*15:17; [3]) of no less than 20 µM, a Kd (HLA-B*18:01; [3]) of no less than 20 µM and a Kd (HLA-B*27:03; [3]) of no less than 20 µM. For the same sequence, the Kd (HLA-B*39:01; [3]) was no less than 20 µM, the Kd (HLA-B*46:01; [3]) was no less than 20 µM and the Kd (HLA-B*51:01; [3]) was no less than 20 µM. The Kd (HLA-B*57:01; [3]) was no less than 20 µM, the Kd (HLA-A*01:01; [3]) was no less than 5 µM and the Kd (HLA-A*11:01; [3]) was no less than 5 µM. The Kd (HLA-A*23:01 [1]) was no less than 5 µM, the Kd (HLA-A*30:01) was no less than 5 µM and the Kd (HLA-A*30:02; [3]) was no less than 5 µM. For the same sequence, the Kd (HLA-A*66:01; [3]) was no less than 5 µM, the Kd (HLA-B*07:02) was no less than 5 µM and the Kd (HLA-B*08:01; [3]) was no less than 5 µM. The Kd (HLA-B*14:02; [3]) was no less than 5 µM, the Kd (HLA-B*27:05; [3]) was no less than 5 µM and the Kd (HLA-B*40:01; [3]) was no less than 5 µM. It also gave a Kd (HLA-B*44:02; [3]) of no less than 5 µM, a Kd (HLA-B*53:01; [3]) of no less than 5 µM and a Kd (HLA-B*58:01; [3]) of no less than 5 µM.
Work on TTRAVNMEV yielded a Kd (HLA-A*02:01; [4]) of no less than 20 µM, a Kd (HLA-A*02:03) of no less than 20 µM and a Kd (HLA-A*02:11) of no less than 20 µM. It also gave a Kd (HLA-A*02:12; [4]) of no less than 20 µM, a Kd (HLA-A*02:16) of no less than 20 µM and a Kd (HLA-A*02:19; [4]) of no less than 20 µM. For the same sequence, the Kd (HLA-A*03:01; [4]) was no less than 20 µM, the Kd (HLA-A*23:01 [2]) was no less than 20 µM and the Kd (HLA-A*24:03; [4]) was no less than 20 µM. For the same sequence, the Kd (HLA-A*26:01; [4]) was no less than 20 µM, the Kd (HLA-A*29:02; [4]) was no less than 20 µM and the Kd (HLA-A*68:02) was no more than 0.001 µM. It also gave a Kd (HLA-B*15:01; [4]) of no less than 20 µM, a Kd (HLA-B*15:17; [4]) of no less than 20 µM and a Kd (HLA-B*18:01; [4]) of no less than 20 µM. For the same sequence, the Kd (HLA-B*27:03; [4]) was no less than 20 µM, the Kd (HLA-B*39:01; [4]) was no less than 20 µM and the Kd (HLA-B*46:01; [4]) was no less than 20 µM. For the same sequence, the Kd (HLA-B*51:01; [4]) was no less than 20 µM, the Kd (HLA-B*57:01; [4]) was no less than 20 µM and the Kd (HLA-A*01:01; [4]) was no less than 5 µM. It also gave a Kd (HLA-A*11:01; [4]) of no less than 5 µM, a Kd (HLA-A*30:02; [4]) of no less than 5 µM and a Kd (HLA-A*66:01; [4]) of no less than 5 µM. It also gave a Kd (HLA-B*08:01; [4]) of no less than 5 µM, a Kd (HLA-B*14:02; [4]) of no less than 5 µM and a Kd (HLA-B*27:05; [4]) of no less than 5 µM. The Kd (HLA-B*40:01; [4]) was no less than 5 µM, the Kd (HLA-B*44:02; [4]) was no less than 5 µM and the Kd (HLA-B*53:01; [4]) was no less than 5 µM. For the same sequence, the Kd (HLA-B*58:01; [4]) was no less than 5 µM.
